Assay [1] deals with Aβ42 fibrils. In words: co-sedimentation; sample of co-incubated BRICHOS-Aβ42 fibrils centrifuged; BRICHOS in the supernatant measured by SDS-PAGE.
Assay [2] has as its target Aβ42 fibrils. Kind of assay: NMR titration; solution 1H-15N HSQC of 74 uM 15N-labelled BRICHOS before and after adding sonicated unlabelled Aβ42 fibrils at 1:1 (related to monomeric Aβ42); 20 mM sodium phosphate, 0.2 mM EDTA, pH 7.4, 25 °C; loss of signal intensity taken as the bound population.
Assay [3] has as its target Aβ42 fibrils. In words: SPR; sonicated Aβ42 fibrils immobilised by amine coupling on a C1 chip (BIAcore 3000); R221E Bri2 BRICHOS injected at 0.195-50 uM in HBS-E (10 mM HEPES, 150 mM NaCl, 0.2 mM EDTA, pH 7.5), 30 uL/min; two-phase association and two-phase dissociation model, global fit; apparent constants. On the technique in general: Surface plasmon resonance follows binding to a sensor surface in real time, without labels.

Regarding “recombinant human Bri2 BRICHOS R221E monomer (domain or fragment)”, in the assay with Aβ42 fibrils [1], the percent of BRICHOS in the soluble fraction stood at 95% and the percent of total BRICHOS bound was 5 to 10%. In the assay with Aβ42 fibrils [2], this substance registered a percent of HSQC signal intensity left after adding fibrils at 1:1 of 90%, a percent of total BRICHOS bound of 5 to 10% and a relative signal attenuation (population of bound BRICHOS) of 10%. Besides, in the assay with Aβ42 fibrils [3], the KD app of the strong phase (two-phase model) amounted to 12.9 nM.

The values above are taken from article PMC10834949.
